Test results as given in PMC4532613 (Molecular and biochemical parasitology, 2015).

Target: the molecule itself
Assay: SEC

B1: Ca^2+-binding mutant FCaBP^E151Q/E188Q, recombinant (natural protein)
chain: MGACGSKGSTSDKGLASDKDGKKAKDRKEAWERIRQAIPREKTAEAKQRRIELFKKFDKNETGKLCYDEVHSGCLEVLKLDEFTPRVRDITKRAFDKARALGSKLENKGSEDFVEFLEFRLMLCYIYDFFELTVMFDEIDASGNMLVDEEQLKRAVPKLEAWGAKVEDPAALFKELDKNGTGSVTFDQFAAWASAVKLDADGDPDNVPESA
In the case of B1, the “stoichiometry N” value is reported as 2.
